The results in this text go back to PMC10838314, “Exploring TRF2-Dependent DNA Distortion Through Single-DNA Manipulation Studies”.

Holding throughout (conditions): protein: recombinant, tags: N-terminal His6 removed by TEV, chain copies: 2, label: 5' biotin and 3' thiol via ligated handles, 52 bp stem, 8 nt loop
In data set [1] the target is TRF2 45-500 (deltaB-TRF2) (Homo sapiens, UniProt Q15554 87-542, del43-86). The data set can be described thus: single-molecule magnetic tweezers hairpin unzipping; Hill n=1.0±0.2; Magnetic tweezers: 150 mM KCl (stretching; full buffer, pH and temperature not in material). EMSA: 25 mM HEPES-Na pH 7.5, 50 mM NaCl, 4 C, 30 min. (Mobility shift assays separate free from complexed probe on a gel.)

Data set [2] addresses T1, hTRF2 full-length (Homo sapiens, UniProt Q15554 43-542). The experiment in a line: single-molecule magnetic tweezers hairpin unzipping; Hill n=1.0±0.3; Fb 7 pN; Magnetic tweezers: 150 mM KCl (stretching; full buffer, pH and temperature not in material). EMSA: 25 mM HEPES-Na pH 7.5, 50 mM NaCl, 4 C, 30 min.
The next data set has as its target TRFH (TRF2 42-245) (Homo sapiens, UniProt Q15554 84-287). The experiment in a line: single-molecule magnetic tweezers hairpin unzipping; no unzipping delay up to 5 uM; very dynamic binding not excluded; Magnetic tweezers: 150 mM KCl (stretching; full buffer, pH and temperature not in material). EMSA: 25 mM HEPES-Na pH 7.5, 50 mM NaCl, 4 C, 30 min.
In data set [3] the target is T1, hTRF2 full-length. The data set can be described thus: single-molecule magnetic tweezers hairpin unzipping; Hill n=1.2±1.7; Magnetic tweezers: 150 mM KCl (stretching; full buffer, pH and temperature not in material). EMSA: 25 mM HEPES-Na pH 7.5, 50 mM NaCl, 4 C, 30 min.

T1 sequence (Q15554 43-542): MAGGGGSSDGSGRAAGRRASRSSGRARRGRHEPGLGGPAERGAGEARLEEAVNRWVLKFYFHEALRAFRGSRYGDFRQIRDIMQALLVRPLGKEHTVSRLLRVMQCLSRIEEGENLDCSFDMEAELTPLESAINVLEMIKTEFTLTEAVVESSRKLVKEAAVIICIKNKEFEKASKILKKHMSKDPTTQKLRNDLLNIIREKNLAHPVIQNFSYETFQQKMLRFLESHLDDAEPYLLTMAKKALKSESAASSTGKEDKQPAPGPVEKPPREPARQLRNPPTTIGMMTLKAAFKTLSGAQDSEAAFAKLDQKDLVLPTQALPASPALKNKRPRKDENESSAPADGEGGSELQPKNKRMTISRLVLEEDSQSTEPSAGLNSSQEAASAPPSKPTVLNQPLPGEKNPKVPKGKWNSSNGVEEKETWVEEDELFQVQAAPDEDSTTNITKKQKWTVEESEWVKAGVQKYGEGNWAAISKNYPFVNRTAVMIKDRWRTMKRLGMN
Chain of TRFH (TRF2 42-245) (Q15554 84-287): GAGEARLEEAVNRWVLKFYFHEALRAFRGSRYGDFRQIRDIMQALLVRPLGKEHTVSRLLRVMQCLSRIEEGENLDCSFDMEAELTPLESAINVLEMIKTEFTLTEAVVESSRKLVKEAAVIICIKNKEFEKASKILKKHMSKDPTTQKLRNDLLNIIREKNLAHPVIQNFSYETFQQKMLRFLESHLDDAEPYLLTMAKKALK
Chain of TRF2 45-500 (deltaB-TRF2) (Q15554 87-542, stated change not applied): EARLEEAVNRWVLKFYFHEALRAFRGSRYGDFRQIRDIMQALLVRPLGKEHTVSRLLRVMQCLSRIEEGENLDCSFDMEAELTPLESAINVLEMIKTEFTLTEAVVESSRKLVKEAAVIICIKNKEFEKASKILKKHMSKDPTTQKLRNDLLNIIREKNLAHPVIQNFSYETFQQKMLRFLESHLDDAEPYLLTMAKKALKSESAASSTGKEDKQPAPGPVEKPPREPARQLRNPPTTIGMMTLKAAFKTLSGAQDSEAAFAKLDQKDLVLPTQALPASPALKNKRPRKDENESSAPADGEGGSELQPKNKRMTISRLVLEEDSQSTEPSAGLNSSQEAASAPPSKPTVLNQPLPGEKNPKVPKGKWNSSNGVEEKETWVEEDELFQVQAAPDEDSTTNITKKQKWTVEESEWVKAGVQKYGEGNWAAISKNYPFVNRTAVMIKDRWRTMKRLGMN

B1: 5-repeat telomeric hairpin (structured_DNA)
DNA: CTTGTGCACAGACTCGTTTGGTTATCGAAGGTTAGGGTTAGGGTTAGGGTTAGGGTTAGGGTGCTACCAGGAAAAAAAACCTGGTAGCACCCTAACCCTAACCCTAACCCTAACCCTAACCTTCGATAACCTTTGCAGCCAGGTCAGTAGCGAC
modifications: 5' phosphate
Consider B1, for which the Kd in data set [1] came out at 284 ± 70.5 nM; with hTRF2 full-length [2] it was 10.3 ± 2.9 nM. In addition, the binding result with TRFH (TRF2 42-245) is given as “no binding”.

B2: non-telomeric hairpin (structured_DNA)
DNA: CTTGTGCACAGACTCGTTTGGTTATCGAAGGTAAGGTCTGGCGAACGGTGTATTACCGGTTTGCTACCAGGAAAAAAAACCTGGTAGCAAACCGGTAATACACCGTTCGCCAGACCTTACCTTCGATAACCTTTGCAGCCAGGTCAGTAGCGAC
modifications: 5' phosphate
Consider B2, for which the Kd with hTRF2 full-length [3] was 76.8 ± 31.7 nM.

Broadly, the Kd is the free concentration of one partner at which half of the binding sites on the other are occupied at equilibrium, for simple one-to-one binding.
